± gives the uncertainty stated by the source.
B1: Zinc finger homeobox protein 4, residues 2183 to 2238; numbered along this chain, Q86UP3 (parent)
chain: SSRTRFTDYQLRVLQDFFDTNAYPKDDEIEQLSTVLNLPTRVIVVWFQNARQKARK

Variants of: B1
Test: abundance fitness (aPCA) (normalised: wild type 0, dead -1); higher = more abundant; growth selection in yeast, the domain comes from the species named
Details: Homo sapiens

Row | Variant | abundance fitness
1 | L32I | -0.156 ± 0.15
2 | L32K | -0.735 ± 0.19
3 | L32M | -0.019 ± 0.11
4 | L32N | -0.683 ± 0.22
5 | L32P | -0.797 ± 0.14
6 | L32Q | -0.751 ± 0.15
7 | L32R | -0.861 ± 0.1
8 | L32S | -0.924 ± 0.1
9 | L32T | -1.05 ± 0.17
10 | L32V | -0.235 ± 0.079
11 | L32W | -0.399 ± 0.09
12 | L32Y | -0.118 ± 0.15
13 | S33C | -0.357 ± 0.19
14 | S33D | -0.884 ± 0.36
15 | S33E | -0.209 ± 0.31
16 | S33F | -0.897 ± 0.19
17 | S33G | -0.23 ± 0.22
18 | S33H | -0.003 ± 0.21
19 | S33I | -1.04 ± 0.21
20 | S33K | -0.82 ± 0.4
21 | S33L | -0.946 ± 0.25
22 | S33M | -0.35 ± 0.22
23 | S33N | -0.257 ± 0.14
24 | S33P | -0.675 ± 0.15

Row | Variant | abundance fitness
25 | S33Q | -0.134 ± 0.31
26 | S33R | -0.486 ± 0.19
27 | S33T | -0.005 ± 0.13
28 | S33V | -0.595 ± 0.3
29 | S33Y | -0.749 ± 0.23
30 | T34A | -0.049 ± 0.084
31 | T34C | -0.106 ± 0.11
32 | T34D | -0.162 ± 0.11
33 | T34E | -0.165 ± 0.11
34 | T34F | 0.062 ± 0.14
35 | T34G | -0.134 ± 0.074
36 | T34H | 0.049 ± 0.14
37 | T34I | -0.256 ± 0.13
38 | T34K | 0.045 ± 0.12
39 | T34L | -0.004 ± 0.077
40 | T34M | -0.145 ± 0.12
41 | T34N | -0.183 ± 0.14
42 | T34P | -0.347 ± 0.11
43 | T34Q | -0.128 ± 0.11
44 | T34R | -0.069 ± 0.081
45 | T34S | -0.066 ± 0.085
46 | T34W | -0.244 ± 0.13
47 | T34Y | -0.061 ± 0.14
48 | V35C | 0.02 ± 0.17

Row | Variant | abundance fitness
49 | V35D | -0.222 ± 0.16
50 | V35E | -0.153 ± 0.1
51 | V35F | -0.206 ± 0.16
52 | V35G | 0.043 ± 0.076
53 | V35H | -0.006 ± 0.17
54 | V35I | -0.207 ± 0.19
55 | V35K | 0.157 ± 0.12
56 | V35L | -0.004 ± 0.094
57 | V35M | 0.058 ± 0.15
58 | V35N | -0.427 ± 0.26
59 | V35P | -0.297 ± 0.12
60 | V35Q | 0.004 ± 0.12
61 | V35R | 0.06 ± 0.081
62 | V35S | 0.03 ± 0.091
63 | V35T | 0.108 ± 0.11
64 | V35W | -0.202 ± 0.11
65 | V35Y | -0.506 ± 0.22
66 | L36A | -0.098 ± 0.086
67 | L36C | 0.008 ± 0.095
68 | L36D | -0.933 ± 0.14
69 | L36E | -1.19 ± 0.28
70 | L36F | -0.407 ± 0.086
71 | L36G | -0.318 ± 0.087
72 | L36H | -0.701 ± 0.11

Row | Variant | abundance fitness
73 | L36K | -0.794 ± 0.15
74 | L36M | -0.157 ± 0.13
75 | L36N | -0.801 ± 0.1
76 | L36Q | -0.877 ± 0.16
77 | L36R | -0.811 ± 0.088
78 | L36T | 0.045 ± 0.081
79 | L36V | 0.03 ± 0.074
80 | L36W | -0.842 ± 0.13
81 | L36Y | -0.8 ± 0.1
82 | N37A | -0.02 ± 0.091
83 | N37C | -0.358 ± 0.12
84 | N37D | -0.061 ± 0.13
85 | N37F | -0.308 ± 0.16
86 | N37G | -0.126 ± 0.078
87 | N37H | -0.282 ± 0.2
88 | N37I | -0.172 ± 0.2
89 | N37K | 0.042 ± 0.11
90 | N37L | -0.156 ± 0.079
91 | N37M | -0.202 ± 0.14
92 | N37P | -0.847 ± 0.18
93 | N37Q | -0.137 ± 0.13
94 | N37R | -0.12 ± 0.081
95 | N37S | -0.109 ± 0.096
96 | N37T | 0.111 ± 0.11

Row | Variant | abundance fitness
97 | N37V | -0.056 ± 0.084
98 | N37W | -0.569 ± 0.11
99 | N37Y | -0.595 ± 0.21
100 | L38A | -0.019 ± 0.082
101 | L38C | 0.018 ± 0.093
102 | L38D | -0.709 ± 0.12
103 | L38E | -0.366 ± 0.14
104 | L38F | -0.277 ± 0.087
105 | L38G | -1.04 ± 0.13
106 | L38H | -0.305 ± 0.086
107 | L38I | -0.061 ± 0.087
108 | L38K | -0.357 ± 0.13
109 | L38M | -0.067 ± 0.1
110 | L38N | -0.914 ± 0.099
111 | L38P | -0.913 ± 0.12
112 | L38Q | -0.131 ± 0.11
113 | L38R | -0.416 ± 0.086
114 | L38S | -0.275 ± 0.074
115 | L38T | -0.007 ± 0.075
116 | L38V | -0.051 ± 0.085
117 | L38W | -0.735 ± 0.14
118 | L38Y | -0.431 ± 0.083
119 | P39A | -0.153 ± 0.09
120 | P39C | -0.063 ± 0.13

Row | Variant | abundance fitness
121 | P39D | 0.093 ± 0.12
122 | P39E | -0.037 ± 0.1
123 | P39F | -1.1 ± 0.25
124 | P39G | 0.014 ± 0.077
125 | P39H | 0.154 ± 0.15
126 | P39K | -0.245 ± 0.14
127 | P39L | -0.962 ± 0.15
128 | P39M | -0.69 ± 0.17
129 | P39N | -0.127 ± 0.23
130 | P39Q | -0.095 ± 0.15
131 | P39R | -0.097 ± 0.077
132 | P39S | -0.062 ± 0.099
133 | P39T | -0.041 ± 0.11
134 | P39V | -0.766 ± 0.1
135 | P39W | -1.22 ± 0.17
136 | P39Y | -0.701 ± 0.19
137 | T40I | 0.591 ± 0.32
138 | T40N | -0.546 ± 0.45
139 | T40P | -0.254 ± 0.28
140 | T40S | -0.213 ± 0.44
141 | R41A | 0.069 ± 0.11
142 | R41C | -0.002 ± 0.14
143 | R41D | 0.204 ± 0.13
144 | R41E | -0.181 ± 0.14

Row | Variant | abundance fitness
145 | R41H | -0.196 ± 0.16
146 | R41K | 0.033 ± 0.11
147 | R41L | -0.059 ± 0.085
148 | R41M | -0.081 ± 0.13
149 | R41N | 0.103 ± 0.21
150 | R41P | -0.143 ± 0.13
151 | R41Q | 0 ± 0.14
152 | R41S | 0.083 ± 0.1
153 | R41T | 0.06 ± 0.11
154 | R41V | -0.008 ± 0.09
155 | R41W | -0.335 ± 0.13
156 | R41Y | 0.017 ± 0.17
157 | V42A | -0.093 ± 0.12
158 | V42C | -0.263 ± 0.2
159 | V42D | 0.141 ± 0.15
160 | V42E | 0.23 ± 0.14
161 | V42F | -0.415 ± 0.19
162 | V42G | -0.065 ± 0.086
163 | V42H | 0.03 ± 0.16
164 | V42I | 0.043 ± 0.14
165 | V42K | -0.236 ± 0.17
166 | V42L | -0.155 ± 0.1
167 | V42N | -0.345 ± 0.27
